Results as given in publication doi:10.1101/521351 (bioRxiv, 2019).

Key:
[1] = molecular target: ICA512 RESP18HD (regulated endocrine-specific protein 18 homology domain of ICA512, residues 35-131) (human) (UniProt Q16849); assay: co-sedimentation
light scattering = molecular target: the molecule itself; assay: light scattering

Molecule: Human insulin (ligand)
- stoichiometry N ([1]; scale: mole of insulin per mole of ICA512 RESP18HD): 0.4
- stoichiometry N ([1]; scale: moles of insulin per mole of ICA512 RESP18HD): 2.8

B1: ICA512 RESP18HD (regulated endocrine-specific protein 18 homology domain of ICA512, residues 35-131) (domain or fragment, human, UniProt Q16849 35-131, looked up)
chain: VSAHGCLFDRRLCSHLEVCIQDGLFGQCQVGVGQARPLLQVTSPVLQRLQGVLRQLMSQGLSWHDDLTQYVISQEMERIPRLRPPEPRPRDRSGLAP
- binding result (light scattering): binds
